Assay [1] deals with K63-linked diubiquitin (UniProt P0CG47). As to the kind of experiment: SEC. (SEC sorts molecules by how far they enter the pores of the column.)
The target of assay [2] is diubiquitin G76C linked via K63, conjugated to BODIPY TMR C5-maleimide (UniProt P0CG47). As to the kind of experiment: fluorescence polarisation. (In fluorescence polarisation assays a small probe gives low polarisation when free and higher when bound to something large.)

In assay [1], “MyUb (G1080-R1131) (from UniProt Q9UM54 1080-1131) (domain or fragment)” registered a stoichiometry N (MyUb per diubiquitin) of 1.

Regarding “myosin VI 1050-1131 (from UniProt Q9UM54 1050-1131) (domain or fragment)”, the fold reduction in binding affinity compared to the MyUb domain alone in assay [2] came to 4 fold.

For the origin of these results see paper PMC4805485.
